Tests used:
[1] = molecular target: T1, JAK1 (human, UniProt P23458 1-1154); test: association with CXCR4 in CXCL12-stimulated IM-9 cells
T1 construct: Endogenous protein of IM-9 cell lysates

[2] = molecular target: STAT3 (human, UniProt P40763 2-770, limits assumed); test: as above
[3] = molecular target: STAT2 (human, UniProt P52630 1-851); test: as above
[4] = molecular target: T2, STAT1 (human, UniProt P42224 2-750, limits assumed); test: as above
T2 sequence (looked up): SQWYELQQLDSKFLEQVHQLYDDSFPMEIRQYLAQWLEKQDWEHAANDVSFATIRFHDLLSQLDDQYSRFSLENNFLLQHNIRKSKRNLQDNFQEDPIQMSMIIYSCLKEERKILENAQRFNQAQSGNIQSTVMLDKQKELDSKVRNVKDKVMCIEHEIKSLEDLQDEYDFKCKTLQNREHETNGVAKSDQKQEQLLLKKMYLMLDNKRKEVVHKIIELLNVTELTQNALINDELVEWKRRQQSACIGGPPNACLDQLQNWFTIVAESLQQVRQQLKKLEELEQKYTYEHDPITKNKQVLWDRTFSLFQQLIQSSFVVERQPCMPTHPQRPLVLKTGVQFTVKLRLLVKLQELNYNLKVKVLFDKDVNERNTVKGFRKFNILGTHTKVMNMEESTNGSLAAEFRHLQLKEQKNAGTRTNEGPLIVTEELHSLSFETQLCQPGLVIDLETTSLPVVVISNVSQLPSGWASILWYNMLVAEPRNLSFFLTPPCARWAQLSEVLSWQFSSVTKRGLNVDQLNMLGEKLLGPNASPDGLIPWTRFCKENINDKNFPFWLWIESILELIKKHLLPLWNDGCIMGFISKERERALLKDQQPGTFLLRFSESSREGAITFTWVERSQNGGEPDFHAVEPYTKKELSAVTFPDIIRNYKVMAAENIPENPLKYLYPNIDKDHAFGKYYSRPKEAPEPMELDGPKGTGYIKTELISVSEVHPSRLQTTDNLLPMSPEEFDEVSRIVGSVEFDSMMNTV

[5] = molecular target: T3, STAT4 (human, UniProt Q14765 1-748); test: association with CXCR4 in CXCL12-stimulated IM-9 cells (data not shown)
T3 sequence (looked up): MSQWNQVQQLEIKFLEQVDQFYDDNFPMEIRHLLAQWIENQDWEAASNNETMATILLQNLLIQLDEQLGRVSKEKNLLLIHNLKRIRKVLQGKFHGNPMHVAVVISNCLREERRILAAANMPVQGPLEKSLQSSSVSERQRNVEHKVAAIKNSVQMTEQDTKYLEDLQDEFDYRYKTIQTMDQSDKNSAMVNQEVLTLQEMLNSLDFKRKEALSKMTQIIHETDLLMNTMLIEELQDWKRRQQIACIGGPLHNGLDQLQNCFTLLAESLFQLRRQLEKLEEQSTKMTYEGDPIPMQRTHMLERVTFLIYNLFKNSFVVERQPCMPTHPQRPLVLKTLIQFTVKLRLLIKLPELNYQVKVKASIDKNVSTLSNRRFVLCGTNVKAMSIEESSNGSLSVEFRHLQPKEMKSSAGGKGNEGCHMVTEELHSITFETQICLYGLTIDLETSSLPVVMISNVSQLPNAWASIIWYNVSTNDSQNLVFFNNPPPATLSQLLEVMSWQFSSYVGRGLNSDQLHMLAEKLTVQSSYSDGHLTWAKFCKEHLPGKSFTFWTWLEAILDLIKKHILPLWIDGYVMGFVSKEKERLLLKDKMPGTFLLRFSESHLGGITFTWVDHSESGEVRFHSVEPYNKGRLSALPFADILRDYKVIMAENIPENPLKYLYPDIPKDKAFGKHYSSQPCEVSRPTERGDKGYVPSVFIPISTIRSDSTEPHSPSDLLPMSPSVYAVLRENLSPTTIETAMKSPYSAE

[6] = molecular target: T4, STAT6 (human, UniProt P42226 2-847); test: as above
T4 sequence (looked up): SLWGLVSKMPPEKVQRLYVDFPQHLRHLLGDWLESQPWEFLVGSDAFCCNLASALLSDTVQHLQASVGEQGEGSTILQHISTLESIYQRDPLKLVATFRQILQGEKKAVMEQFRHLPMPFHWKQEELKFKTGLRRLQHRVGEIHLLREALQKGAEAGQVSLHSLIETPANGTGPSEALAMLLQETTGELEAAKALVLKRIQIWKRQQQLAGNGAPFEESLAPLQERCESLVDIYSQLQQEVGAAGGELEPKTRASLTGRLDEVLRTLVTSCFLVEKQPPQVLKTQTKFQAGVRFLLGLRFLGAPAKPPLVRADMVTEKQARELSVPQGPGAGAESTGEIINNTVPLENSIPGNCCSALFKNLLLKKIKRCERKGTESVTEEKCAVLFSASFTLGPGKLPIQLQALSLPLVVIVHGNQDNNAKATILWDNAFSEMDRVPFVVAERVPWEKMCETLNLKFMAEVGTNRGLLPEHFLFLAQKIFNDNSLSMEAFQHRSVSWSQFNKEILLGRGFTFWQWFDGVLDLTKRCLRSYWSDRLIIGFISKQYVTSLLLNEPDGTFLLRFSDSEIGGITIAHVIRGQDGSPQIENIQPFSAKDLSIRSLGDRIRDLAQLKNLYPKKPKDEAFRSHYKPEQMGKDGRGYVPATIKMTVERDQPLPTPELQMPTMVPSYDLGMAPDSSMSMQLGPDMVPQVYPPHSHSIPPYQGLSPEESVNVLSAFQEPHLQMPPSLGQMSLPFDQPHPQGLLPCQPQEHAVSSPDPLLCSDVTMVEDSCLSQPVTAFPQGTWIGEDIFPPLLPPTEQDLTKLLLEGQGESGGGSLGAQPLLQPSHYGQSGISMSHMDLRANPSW

Chain of STAT2 (P52630 whole entry): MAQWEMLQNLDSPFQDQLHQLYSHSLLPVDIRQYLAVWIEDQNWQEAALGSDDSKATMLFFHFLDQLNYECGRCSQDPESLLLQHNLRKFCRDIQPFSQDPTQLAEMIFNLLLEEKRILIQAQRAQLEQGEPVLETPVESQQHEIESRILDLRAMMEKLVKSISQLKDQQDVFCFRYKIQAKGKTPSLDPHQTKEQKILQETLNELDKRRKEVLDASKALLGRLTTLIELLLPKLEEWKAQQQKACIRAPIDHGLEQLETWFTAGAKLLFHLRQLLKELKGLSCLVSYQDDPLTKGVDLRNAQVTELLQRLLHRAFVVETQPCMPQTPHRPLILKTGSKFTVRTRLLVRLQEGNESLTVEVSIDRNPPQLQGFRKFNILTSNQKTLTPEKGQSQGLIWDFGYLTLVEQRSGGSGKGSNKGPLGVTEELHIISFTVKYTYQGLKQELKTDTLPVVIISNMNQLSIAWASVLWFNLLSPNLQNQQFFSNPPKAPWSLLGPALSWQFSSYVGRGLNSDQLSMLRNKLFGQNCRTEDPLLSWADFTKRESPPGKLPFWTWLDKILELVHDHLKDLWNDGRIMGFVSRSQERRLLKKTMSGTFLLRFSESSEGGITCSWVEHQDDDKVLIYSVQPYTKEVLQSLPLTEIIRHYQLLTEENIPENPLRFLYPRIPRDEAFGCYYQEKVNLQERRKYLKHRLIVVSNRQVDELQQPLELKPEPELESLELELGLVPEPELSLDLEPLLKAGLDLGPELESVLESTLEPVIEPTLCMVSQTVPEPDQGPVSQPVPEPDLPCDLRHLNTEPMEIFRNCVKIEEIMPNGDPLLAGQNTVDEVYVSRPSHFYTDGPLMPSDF
T1 sequence (P23458 whole entry): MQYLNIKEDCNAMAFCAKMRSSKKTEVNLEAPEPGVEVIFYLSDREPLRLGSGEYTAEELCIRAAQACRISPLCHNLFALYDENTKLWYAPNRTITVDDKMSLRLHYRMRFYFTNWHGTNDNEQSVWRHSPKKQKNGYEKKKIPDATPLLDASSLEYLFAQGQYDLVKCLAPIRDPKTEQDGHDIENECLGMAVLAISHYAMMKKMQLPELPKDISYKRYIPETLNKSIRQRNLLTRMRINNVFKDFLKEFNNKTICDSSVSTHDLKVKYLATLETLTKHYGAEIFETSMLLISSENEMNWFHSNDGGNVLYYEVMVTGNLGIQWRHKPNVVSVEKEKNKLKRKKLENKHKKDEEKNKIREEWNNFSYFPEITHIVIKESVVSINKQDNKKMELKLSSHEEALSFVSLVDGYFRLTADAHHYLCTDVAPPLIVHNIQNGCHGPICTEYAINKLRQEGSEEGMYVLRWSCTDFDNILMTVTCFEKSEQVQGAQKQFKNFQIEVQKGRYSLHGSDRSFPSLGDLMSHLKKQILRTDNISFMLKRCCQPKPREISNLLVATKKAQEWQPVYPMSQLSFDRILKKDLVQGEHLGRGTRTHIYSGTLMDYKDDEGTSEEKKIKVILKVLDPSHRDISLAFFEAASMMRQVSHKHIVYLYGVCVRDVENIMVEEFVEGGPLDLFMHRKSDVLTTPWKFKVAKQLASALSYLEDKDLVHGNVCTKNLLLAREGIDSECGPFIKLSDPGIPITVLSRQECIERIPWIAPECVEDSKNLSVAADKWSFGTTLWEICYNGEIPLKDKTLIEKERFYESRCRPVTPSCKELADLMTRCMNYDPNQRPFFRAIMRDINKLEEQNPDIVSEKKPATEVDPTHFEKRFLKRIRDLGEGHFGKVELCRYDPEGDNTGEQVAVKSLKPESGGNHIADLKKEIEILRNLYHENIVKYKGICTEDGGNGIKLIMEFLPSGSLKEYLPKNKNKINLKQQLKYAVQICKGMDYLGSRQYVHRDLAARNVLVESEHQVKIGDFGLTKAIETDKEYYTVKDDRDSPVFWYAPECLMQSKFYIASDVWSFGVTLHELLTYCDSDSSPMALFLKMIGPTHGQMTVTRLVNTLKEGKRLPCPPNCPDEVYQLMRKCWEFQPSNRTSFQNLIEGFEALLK
Chain of STAT3 (P40763 2-770 limits assumed): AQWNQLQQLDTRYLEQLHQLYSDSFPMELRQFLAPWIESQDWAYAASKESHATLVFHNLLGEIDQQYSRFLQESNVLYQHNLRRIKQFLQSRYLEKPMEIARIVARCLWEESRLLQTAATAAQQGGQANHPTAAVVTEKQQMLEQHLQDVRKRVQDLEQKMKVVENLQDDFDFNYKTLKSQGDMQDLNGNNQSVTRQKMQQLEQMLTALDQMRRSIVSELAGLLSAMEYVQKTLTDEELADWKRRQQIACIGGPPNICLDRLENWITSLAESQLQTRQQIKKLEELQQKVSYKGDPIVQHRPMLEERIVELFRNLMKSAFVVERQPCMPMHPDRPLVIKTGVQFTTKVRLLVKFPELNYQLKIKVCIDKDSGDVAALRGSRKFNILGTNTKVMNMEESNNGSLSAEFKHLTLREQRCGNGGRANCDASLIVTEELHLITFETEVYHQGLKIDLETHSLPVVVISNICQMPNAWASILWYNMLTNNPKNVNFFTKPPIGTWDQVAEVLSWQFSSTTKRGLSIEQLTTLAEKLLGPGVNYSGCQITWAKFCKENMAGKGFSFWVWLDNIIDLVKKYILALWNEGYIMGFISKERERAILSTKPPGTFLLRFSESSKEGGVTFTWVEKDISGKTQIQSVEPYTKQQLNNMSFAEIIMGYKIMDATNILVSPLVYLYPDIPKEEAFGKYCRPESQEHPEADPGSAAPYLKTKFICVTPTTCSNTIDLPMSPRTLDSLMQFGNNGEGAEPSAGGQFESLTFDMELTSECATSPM

binding result [1]: binds
binding result [2]: binds
binding result [3]: binds
binding result [4]: binds
binding result [5]: no binding
binding result [6]: no binding
B1: CXCR4 (receptor, human, UniProt P61073 1-352, looked up)
chain: MEGISIYTSDNYTEEMGSGDYDSMKEPCFREENANFNKIFLPTIYSIIFLTGIVGNGLVILVMGYQKKLRSMTDKYRLHLSVADLLFVITLPFWAVDAVANWYFGNFLCKAVHVIYTVNLYSSVLILAFISLDRYLAIVHATNSQRPRKLLAEKVVYVGVWIPALLLTIPDFIFANVSEADDRYICDRFYPNDLWVVVFQFQHIMVGLILPGIVILSCYCIIISKLSHSKGHQKRKALKTTVILILAFFACWLPYYIGISIDSFILLEIIKQGCEFENTVHKWISITEALAFFHCCLNPILYAFLGAKFKTSAQHALTSVSRGSSLKILSKGKRGGHSSVSTESESSSFHSS
notes: whole, on cells; Endogenous receptor of IM-9 cells: on the cell surface in flow cytometry, immunoprecipitated from digitonin lysates in the co-immunoprecipitations; also called CXCR4 receptor; the CXCR4
